Measurements taken from the Human Domainome abundance scans (Beltran et al. 2025).
± gives the uncertainty stated by the source.

B1: Protein S100-G, residues 1 to 79; numbered along this chain, P02633 (parent)
chain: MSAKKSPEELKGIFEKYAAKEGDPNQLSKEELKLLLQTEFPSLLKGPSTLDELFEELDKNGDGEVSFEEFQVLVKKISQ

Variants of: B1
Assay: abundance fitness (aPCA) (normalised: wild type 0, dead -1); higher = more abundant; growth selection in yeast, the domain comes from the species named
Details: Bos taurus

Variant	abundance fitness
MSAKKSPEELKGIFEKYAAKEGDPNQLSKEELKLLLQTEFPSLLKGPSTLDELFEELDKNGDGEVSFQEFQVLVKKISQ [E68Q]	-0.099 ± 0.078
MSAKKSPEELKGIFEKYAAKEGDPNQLSKEELKLLLQTEFPSLLKGPSTLDELFEELDKNGDGEVSFPEFQVLVKKISQ [E68P]	0.009 ± 0.067
MSAKKSPEELKGIFEKYAAKEGDPNQLSKEELKLLLQTEFPSLLKGPSTLDELFEELDKNGDGEVSFGEFQVLVKKISQ [E68G]	-0.06 ± 0.067
MSAKKSPEELKGIFEKYAAKEGDPNQLSKEELKLLLQTEFPSLLKGPSTLDELFEELDKNGDGEVSFTEFQVLVKKISQ [E68T]	-0.012 ± 0.062
MSAKKSPEELKGIFEKYAAKEGDPNQLSKEELKLLLQTEFPSLLKGPSTLDELFEELDKNGDGEVSFMEFQVLVKKISQ [E68M]	-0.044 ± 0.075
MSAKKSPEELKGIFEKYAAKEGDPNQLSKEELKLLLQTEFPSLLKGPSTLDELFEELDKNGDGEVSFCEFQVLVKKISQ [E68C]	-0.073 ± 0.079
MSAKKSPEELKGIFEKYAAKEGDPNQLSKEELKLLLQTEFPSLLKGPSTLDELFEELDKNGDGEVSFDEFQVLVKKISQ [E68D]	-0.005 ± 0.083
MSAKKSPEELKGIFEKYAAKEGDPNQLSKEELKLLLQTEFPSLLKGPSTLDELFEELDKNGDGEVSFKEFQVLVKKISQ [E68K]	0.018 ± 0.075
MSAKKSPEELKGIFEKYAAKEGDPNQLSKEELKLLLQTEFPSLLKGPSTLDELFEELDKNGDGEVSFFEFQVLVKKISQ [E68F]	-0.062 ± 0.074
MSAKKSPEELKGIFEKYAAKEGDPNQLSKEELKLLLQTEFPSLLKGPSTLDELFEELDKNGDGEVSFNEFQVLVKKISQ [E68N]	-0.047 ± 0.071
MSAKKSPEELKGIFEKYAAKEGDPNQLSKEELKLLLQTEFPSLLKGPSTLDELFEELDKNGDGEVSFREFQVLVKKISQ [E68R]	-0.046 ± 0.061
MSAKKSPEELKGIFEKYAAKEGDPNQLSKEELKLLLQTEFPSLLKGPSTLDELFEELDKNGDGEVSFAEFQVLVKKISQ [E68A]	-0.016 ± 0.064
MSAKKSPEELKGIFEKYAAKEGDPNQLSKEELKLLLQTEFPSLLKGPSTLDELFEELDKNGDGEVSFYEFQVLVKKISQ [E68Y]	-0.216 ± 0.076
MSAKKSPEELKGIFEKYAAKEGDPNQLSKEELKLLLQTEFPSLLKGPSTLDELFEELDKNGDGEVSFHEFQVLVKKISQ [E68H]	-0.001 ± 0.074
MSAKKSPEELKGIFEKYAAKEGDPNQLSKEELKLLLQTEFPSLLKGPSTLDELFEELDKNGDGEVSFLEFQVLVKKISQ [E68L]	-0.098 ± 0.057
MSAKKSPEELKGIFEKYAAKEGDPNQLSKEELKLLLQTEFPSLLKGPSTLDELFEELDKNGDGEVSEEEFQVLVKKISQ [F67E]	-0.063 ± 0.077
MSAKKSPEELKGIFEKYAAKEGDPNQLSKEELKLLLQTEFPSLLKGPSTLDELFEELDKNGDGEVSMEEFQVLVKKISQ [F67M]	-0.176 ± 0.072
MSAKKSPEELKGIFEKYAAKEGDPNQLSKEELKLLLQTEFPSLLKGPSTLDELFEELDKNGDGEVSCEEFQVLVKKISQ [F67C]	-0.05 ± 0.079

Variant	abundance fitness
MSAKKSPEELKGIFEKYAAKEGDPNQLSKEELKLLLQTEFPSLLKGPSTLDELFEELDKNGDGEVSKEEFQVLVKKISQ [F67K]	-0.172 ± 0.075
MSAKKSPEELKGIFEKYAAKEGDPNQLSKEELKLLLQTEFPSLLKGPSTLDELFEELDKNGDGEVSGEEFQVLVKKISQ [F67G]	-0.175 ± 0.063
MSAKKSPEELKGIFEKYAAKEGDPNQLSKEELKLLLQTEFPSLLKGPSTLDELFEELDKNGDGEVSWEEFQVLVKKISQ [F67W]	-0.038 ± 0.071
MSAKKSPEELKGIFEKYAAKEGDPNQLSKEELKLLLQTEFPSLLKGPSTLDELFEELDKNGDGEVSSEEFQVLVKKISQ [F67S]	-0.097 ± 0.065
MSAKKSPEELKGIFEKYAAKEGDPNQLSKEELKLLLQTEFPSLLKGPSTLDELFEELDKNGDGEVSYEEFQVLVKKISQ [F67Y]	-0.022 ± 0.087
MSAKKSPEELKGIFEKYAAKEGDPNQLSKEELKLLLQTEFPSLLKGPSTLDELFEELDKNGDGEVSTEEFQVLVKKISQ [F67T]	-0.201 ± 0.07
MSAKKSPEELKGIFEKYAAKEGDPNQLSKEELKLLLQTEFPSLLKGPSTLDELFEELDKNGDGEVSPEEFQVLVKKISQ [F67P]	-0.257 ± 0.077
MSAKKSPEELKGIFEKYAAKEGDPNQLSKEELKLLLQTEFPSLLKGPSTLDELFEELDKNGDGEVSHEEFQVLVKKISQ [F67H]	-0.12 ± 0.094
MSAKKSPEELKGIFEKYAAKEGDPNQLSKEELKLLLQTEFPSLLKGPSTLDELFEELDKNGDGEVSREEFQVLVKKISQ [F67R]	-0.141 ± 0.06
MSAKKSPEELKGIFEKYAAKEGDPNQLSKEELKLLLQTEFPSLLKGPSTLDELFEELDKNGDGEVSIEEFQVLVKKISQ [F67I]	-0.161 ± 0.084
MSAKKSPEELKGIFEKYAAKEGDPNQLSKEELKLLLQTEFPSLLKGPSTLDELFEELDKNGDGEVSNEEFQVLVKKISQ [F67N]	-0.131 ± 0.086
MSAKKSPEELKGIFEKYAAKEGDPNQLSKEELKLLLQTEFPSLLKGPSTLDELFEELDKNGDGEVSVEEFQVLVKKISQ [F67V]	-0.059 ± 0.061
MSAKKSPEELKGIFEKYAAKEGDPNQLSKEELKLLLQTEFPSLLKGPSTLDELFEELDKNGDGEVSQEEFQVLVKKISQ [F67Q]	0.04 ± 0.079
MSAKKSPEELKGIFEKYAAKEGDPNQLSKEELKLLLQTEFPSLLKGPSTLDELFEELDKNGDGEVSDEEFQVLVKKISQ [F67D]	-0.294 ± 0.084
MSAKKSPEELKGIFEKYAAKEGDPNQLSKEELKLLLQTEFPSLLKGPSTLDELFEELDKNGDGEVSLEEFQVLVKKISQ [F67L]	-0.059 ± 0.06
MSAKKSPEELKGIFEKYAAKEGDPNQLSKEELKLLLQTEFPSLLKGPSTLDELFEELDKNGDGEVSFECFQVLVKKISQ [E69C]	-0.074 ± 0.084
MSAKKSPEELKGIFEKYAAKEGDPNQLSKEELKLLLQTEFPSLLKGPSTLDELFEELDKNGDGEVSFEAFQVLVKKISQ [E69A]	-0.04 ± 0.08
